The substances below were run against acetylcholine receptor (Homo sapiens, UniProt P02708) (assay: SPR binding affinity (RU) of optimized 5mer/6mer/7mer peptides, Examples 6-7). Settings: 6mer-1 Top sequence; SPR; peptides tested at 10 μM.
Sequence of acetylcholine receptor (P02708 21-457): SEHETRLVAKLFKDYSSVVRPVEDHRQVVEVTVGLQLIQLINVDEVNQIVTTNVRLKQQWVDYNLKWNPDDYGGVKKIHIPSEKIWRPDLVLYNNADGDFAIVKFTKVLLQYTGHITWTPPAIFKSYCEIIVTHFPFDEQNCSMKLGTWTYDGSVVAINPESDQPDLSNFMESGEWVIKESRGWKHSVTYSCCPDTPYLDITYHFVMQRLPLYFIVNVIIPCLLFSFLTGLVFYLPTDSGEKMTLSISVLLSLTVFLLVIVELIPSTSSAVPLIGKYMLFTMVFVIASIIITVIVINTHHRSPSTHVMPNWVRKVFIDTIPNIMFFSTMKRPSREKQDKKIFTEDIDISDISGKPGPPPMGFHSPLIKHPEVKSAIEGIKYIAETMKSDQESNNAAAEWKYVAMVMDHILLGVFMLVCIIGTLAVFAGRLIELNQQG
Procedure: Based on the frequencies of occurrence of the top 7 amino acids from Table 7 in Example 5, 600 peptides comprising these amino acids (top combinations) and those comprising the 13 less frequently occurring amino acids (bottom combinations) were synthesized for each series of 5mer, 6mer-1, and 6mer-2. The binding affinity of each sequence for the acetylcholine receptor was measured using Surface Plasmon Resonance (SPR) analysis method. The peptides were tested at a concentration of 10 μM. Additionally, the average binding affinities of the top and bottom combinations in each series are depicted in FIGS. 5-7.
Representative peptides identified in Example 6, two in each library, including 5mers (73, 311) and 6mers-1 (43, 210) and 6mers-2 (136, 233), were compared with the pre-optimized 6mer, 5mer-ND, and Synake.
Substance 6mer-1-366 (KRWFCR) has a Binding affinity of 133 Ru.
Work on 6mer-1-224 (KRGFLR) yielded a Binding affinity of 142 Ru.
In the case of 6mer-1-318 (KKSRRK), the Binding affinity is reported as 145 Ru.
Substance 6mer-1-348 (RKQRLK) has a Binding affinity of 142 Ru.
Substance 6mer-1-332 (KKRVQK) has a Binding affinity of 122 Ru.
For 6mer-1-266 (KKGRLK), the Binding affinity was 144 Ru.
6mer-1-215 (RKRYSR) showed a Binding affinity of 136 Ru.
In the case of 6mer-1-311 (RRGYQK), the Binding affinity is reported as 127 Ru.
For 6mer-1-259 (KRRYRK), the Binding affinity was 141 Ru.

Same assay, conditions: 6mer-2 Top sequence; SPR; peptides tested at 10 μM
Work on 6mer-2-4 (RSYYRR) yielded a Binding affinity of 125 Ru.
For 6mer-2-35 (RWISRK), the Binding affinity was 148 Ru.
6mer-2-59 (RVLSRK) showed a Binding affinity of 123 Ru.
With 6mer-2-87 (RRLTKR) the Binding affinity was 142 Ru.
6mer-2-165 (KWFTRR) gave a Binding affinity of 139 Ru.
6mer-2-2 (RWYLKR) was tested, and the Binding affinity was 139 Ru.
6mer-2-21 (RLFTRK) showed a Binding affinity of 141 Ru.

Same assay, conditions: SPR, Resonance Units; 5mer Bottom sequence (bottom combinations); peptides tested at 10 μM
In the case of 5mer-679 (KKTVK), the Binding affinity is reported as 21 Ru.
5mer-1100 (RPWKR) showed a Binding affinity of 24 Ru.
Substance 5mer-1053 (KHEHK) has a Binding affinity of 27 Ru.
5mer-650 (RPEDK) was tested, and the Binding affinity was 22 Ru.
In the case of 5mer-1002 (KEDNK), the Binding affinity is reported as 12 Ru.
In the case of 5mer-1038 (KCCKR), the Binding affinity is reported as 17 Ru.
5mer-631 (RPANR) was tested, and the Binding affinity was 17 Ru.
5mer-936 (RNHKR) showed a Binding affinity of 29 Ru.
Substance 5mer-661 (RCNMK) has a Binding affinity of 30 Ru.
5mer-783 (KCKVR) was tested, and the Binding affinity was 29 Ru.
With 5mer-1103 (KKSHR) the Binding affinity was 18 Ru.
5mer-1013 (KCCVK) gave a Binding affinity of 19 Ru.
For 5mer-692 (RDHWK), the Binding affinity was 15 Ru.
With 5mer-765 (RNEFR) the Binding affinity was 12 Ru.
5mer-760 (RIWAR) was tested, and the Binding affinity was 19 Ru.
With 5mer-787 (KDNIR) the Binding affinity was 17 Ru.
5mer-955 (KNADK) gave a Binding affinity of 14 Ru.
5mer-1040 (KTPWR) was tested, and the Binding affinity was 17 Ru.
5mer-964 (KYTDR) was tested, and the Binding affinity was 22 Ru.
5mer-690 (RAEIK) showed a Binding affinity of 12 Ru.
Substance 5mer-792 (RMEKK) has a Binding affinity of 31 Ru.
Work on 5mer-914 (RPTMR) yielded a Binding affinity of 26 Ru.

Same assay, conditions: SPR, Resonance Units; peptides tested at 10 μM; 6mer-1 Bottom sequence
6mer-1-1131 (RKDNIK) gave a Binding affinity of 42 Ru.
With 6mer-1-1148 (RRCSHR) the Binding affinity was 31 Ru.
With 6mer-1-1147 (RKAPHR) the Binding affinity was 35 Ru.
With 6mer-1-1178 (RKKMAK) the Binding affinity was 29 Ru.
In the case of 6mer-1-1110 (RKFTER), the Binding affinity is reported as 24 Ru.
6mer-1-1032 (KKTSMR) showed a Binding affinity of 27 Ru.
6mer-1-1016 (KRHTHR) was tested, and the Binding affinity was 21 Ru.

Same assay, conditions: SPR, Resonance Units; peptides tested at 10 μM; 6mer-1 Bottom sequence (Table 11)
For 6mer-1-686 (KKYEVR), the Binding affinity was 25 Ru.
6mer-1-766 (RKCTIR) showed a Binding affinity of 15 Ru.
6mer-1-764 (RRNPFK) showed a Binding affinity of 24 Ru.
Work on 6mer-1-604 (KKFTKK) yielded a Binding affinity of 24 Ru.

Same assay, conditions: SPR, Resonance Units; peptides tested at 10 μM; 6mer-2 Bottom sequence
Work on 6mer-2-785 (RHCHRR) yielded a Binding affinity of 31 Ru.
6mer-2-936 (KPPAKK) showed a Binding affinity of 21 Ru.
In the case of 6mer-2-852 (RNCERR), the Binding affinity is reported as 28 Ru.
Work on 6mer-2-775 (KMSMKK) yielded a Binding affinity of 26 Ru.
For 6mer-2-712 (KIPHRR), the Binding affinity was 29 Ru.
6mer-2-687 (KADGRK) showed a Binding affinity of 16 Ru.
6mer-2-862 (RHTFKK) showed a Binding affinity of 29 Ru.
6mer-2-709 (RIWPKR) showed a Binding affinity of 31 Ru.
6mer-2-694 (KDSIRK) showed a Binding affinity of 22 Ru.
Substance 6mer-2-739 (RIHAKK) has a Binding affinity of 17 Ru.
6mer-2-607 (KKWVKR) gave a Binding affinity of 31 Ru.
Work on 6mer-2-985 (REMNKR) yielded a Binding affinity of 34 Ru.
With 6mer-2-966 (KEDAKR) the Binding affinity was 41 Ru.
With 6mer-2-933 (RYSMKR) the Binding affinity was 34 Ru.
Work on 6mer-2-917 (RFCWRK) yielded a Binding affinity of 23 Ru.
6mer-2-787 (RIWHKK) was tested, and the Binding affinity was 19 Ru.
6mer-2-858 (KEEHRR) was tested, and the Binding affinity was 30 Ru.

Same assay, conditions: SPR, Resonance Units; peptides tested at 10 μM; 6mer-2 Top sequence
6mer-2-575 (RGYSRK) gave a Binding affinity of 139 Ru.
For 6mer-2-451 (RGRCKK), the Binding affinity was 148 Ru.
Work on 6mer-2-578 (RSVLRK) yielded a Binding affinity of 135 Ru.
6mer-2-582 (RWQTRK) showed a Binding affinity of 148 Ru.
6mer-2-600 (RSQLKK) showed a Binding affinity of 139 Ru.
6mer-2-532 (KSITKR) gave a Binding affinity of 147 Ru.
With 6mer-2-577 (KRVQRR) the Binding affinity was 139 Ru.
Substance 6mer-2-447 (RVYTKK) has a Binding affinity of 139 Ru.
6mer-2-422 (RLITRR) was tested, and the Binding affinity was 154 Ru.
In the case of 6mer-2-583 (KSVTKK), the Binding affinity is reported as 154 Ru.

Same assay, conditions: SPR, Resonance Units; peptides tested at 10 μM; 6mer-2 Top sequence (Table 12)
For 6mer-2-345 (KSRQKK), the Binding affinity was 148 Ru.
In the case of 6mer-2-212 (KWQLRR), the Binding affinity is reported as 148 Ru.
In the case of 6mer-2-316 (KGIRRR), the Binding affinity is reported as 139 Ru.
Work on 6mer-2-342 (KRYRKK) yielded a Binding affinity of 145 Ru.
6mer-2-215 (RLYYRR) gave a Binding affinity of 123 Ru.
With 6mer-2-312 (KWRTKR) the Binding affinity was 121 Ru.
With 6mer-2-375 (RVVQKK) the Binding affinity was 131 Ru.
6mer-2-367 (RWRSRR) showed a Binding affinity of 142 Ru.

Same assay, conditions: SPR, peptides at 10 μM; 6mer-2 Bottom sequence
6mer-2-1123 (RITARR) showed a Binding affinity of 36 Ru.
In the case of 6mer-2-1192 (KHKNKR), the Binding affinity is reported as 40 Ru.
With 6mer-2-1091 (RFDNKR) the Binding affinity was 31 Ru.
6mer-2-1113 (KPNFRK) showed a Binding affinity of 43 Ru.
Substance 6mer-2-1121 (KPSKRR) has a Binding affinity of 21 Ru.
Work on 6mer-2-1087 (KEEMRR) yielded a Binding affinity of 21 Ru.
Work on 6mer-2-1058 (RMPWKK) yielded a Binding affinity of 24 Ru.
Substance 6mer-2-1060 (KTNERK) has a Binding affinity of 35 Ru.

Same assay, conditions: SPR, peptides tested at 10 μM; 5mer Top sequence
With 5mer-72 (KLYRR) the Binding affinity was 50 Ru.
In the case of 5mer-162 (RGYQR), the Binding affinity is reported as 51 Ru.
Substance 5mer-80 (KSRTR) has a Binding affinity of 83 Ru.
Work on 5mer-326 (RRFTK) yielded a Binding affinity of 68 Ru.
With 5mer-386 (RSFLK) the Binding affinity was 78 Ru.
Work on 5mer-198 (KLISR) yielded a Binding affinity of 74 Ru.
5mer-443 (RGFTK) showed a Binding affinity of 80 Ru.
5mer-177 (RWVRK) showed a Binding affinity of 77 Ru.
5mer-68 (RGFYK) was tested, and the Binding affinity was 82 Ru.
Work on 5mer-160 (RSIRR) yielded a Binding affinity of 53 Ru.
Substance 5mer-406 (KVYLR) has a Binding affinity of 84 Ru.
With 5mer-389 (KWRRR) the Binding affinity was 57 Ru.
In the case of 5mer-459 (RSQLR), the Binding affinity is reported as 76 Ru.
5mer-205 (RWYYR) gave a Binding affinity of 75 Ru.
5mer-491 (KQIRR) was tested, and the Binding affinity was 81 Ru.

Same assay, conditions: SPR, peptides tested at 10 μM; 5mer Top sequence (top combinations)
5mer-528 (RVLLR) showed a Binding affinity of 50 Ru.
For 5mer-533 (RLVYK), the Binding affinity was 84 Ru.
5mer-560 (KWYQR) gave a Binding affinity of 59 Ru.
Substance 5mer-590 (KQYTK) has a Binding affinity of 81 Ru.

Same assay, conditions: SPR, peptides tested at 10 μM; 6mer-1 Bottom sequence (Table 11)
6mer-1-880 (KRPMDK) showed a Binding affinity of 21 Ru.
Substance 6mer-1-862 (KKHSEK) has a Binding affinity of 32 Ru.
Substance 6mer-1-907 (RKPAWR) has a Binding affinity of 42 Ru.
6mer-1-945 (RKTSIK) gave a Binding affinity of 31 Ru.
6mer-1-836 (RRCMIK) was tested, and the Binding affinity was 22 Ru.
With 6mer-1-977 (RRPCFR) the Binding affinity was 43 Ru.
6mer-1-914 (RRKCVR) gave a Binding affinity of 39 Ru.
Work on 6mer-1-940 (RKPEDR) yielded a Binding affinity of 29 Ru.
Substance 6mer-1-960 (KKCPFR) has a Binding affinity of 34 Ru.

Same assay, conditions: SPR, peptides tested at 10 μM; 6mer-1 Top sequence
Work on 6mer-1-568 (KRWQQK) yielded a Binding affinity of 147 Ru.
Substance 6mer-1-531 (RKGQTK) has a Binding affinity of 135 Ru.
With 6mer-1-498 (RKRQQK) the Binding affinity was 139 Ru.
For 6mer-1-496 (RRVYQR), the Binding affinity was 148 Ru.
For 6mer-1-417 (RKSVCK), the Binding affinity was 139 Ru.
For 6mer-1-510 (KRRQSR), the Binding affinity was 122 Ru.
Substance 6mer-1-490 (KKLFRR) has a Binding affinity of 133 Ru.
For 6mer-1-558 (RRLIQR), the Binding affinity was 139 Ru.

Same assay, conditions: SPR, peptides tested at 10 μM; 6mer-1 Top sequence (top combinations)
6mer-1-9 (RKSFCK) was tested, and the Binding affinity was 154 Ru.
Substance 6mer-1-129 (RRRQSK) has a Binding affinity of 121 Ru.
For 6mer-1-134 (KKSIYR), the Binding affinity was 128 Ru.
With 6mer-1-98 (KRLQCR) the Binding affinity was 154 Ru.
6mer-1-106 (KRGQLK) was tested, and the Binding affinity was 149 Ru.
6mer-1-121 (KRRYTK) gave a Binding affinity of 148 Ru.
6mer-1-137 (RRLFRR) showed a Binding affinity of 121 Ru.
6mer-1-185 (KRQLRK) gave a Binding affinity of 153 Ru.

Same assay, conditions: SPR; XRRGVRR-7mer and RRGVRRX-7mer
3649 (WRRGVRR) [compound 3649] was tested, and the “Binding affinity, values relative to the RRGVRR sequence” value was 134.
For 3678 (RRGVRRH) [compound 3678], the “Binding affinity, values relative to the RRGVRR sequence” value was 154.
3642 (ARRGVRR) [compound 3642] was tested, and the “Binding affinity, values relative to the RRGVRR sequence” value was 134.
In the case of 3656 (KRRGVRR) [compound 3656], the “Binding affinity, values relative to the RRGVRR sequence” value is reported as 169.

Same assay, conditions: SPR; peptides tested at 10 μM; 5mer Bottom sequence
5mer-824 (KIDMK) was tested, and the Binding affinity was 13 Ru.
For 5mer-877 (RFSMR), the Binding affinity was 17 Ru.
5mer-1125 (RYPFK) gave a Binding affinity of 29 Ru.
Substance 5mer-1192 (RYAKK) has a Binding affinity of 28 Ru.
5mer-891 (RKKMK) gave a Binding affinity of 24 Ru.
